Assay results: patent US20200123233A1

B1: LG212F6 (VHH)
VHH: EVQLVESGGGLVQPGGSLRLSCAASGFTFGSYDMSWVRQAPGKGSEWVSHINTGGGSTTYADSVKGRFTISRDNAKNTLYLQMSSLKPEDTAVYYCATGLYGGSTDDYWGQGTQVTVSS
B2: LG212B12 (VHH)
VHH: EVQLVESGGGLVQPGGSLRLSCAASGFTFGNYDMSWVRQAPGKGPEWVSGINTGGSTLYADSVKGRFTISRDNAKNTLYLQMNSLKSEDTAVYYCAKDLYGSTWYTDYWSQGTQVTVSS
B3: LG212C12 (VHH)
VHH: EVQLVESGGGLVQPGGSLRLSCAASGFTFGSSDMSWVRQAPGKGPEWVSGINSGGGRTLYADSVKGRFTISRDNAKNTLYLQMNSLKSEDTAVYYCATDLYGSSWYTDYWSQGTQVTVSS
B4: 213-E6 5GS 212-C12 (VHH)
chain: EVQLVESGGGLVQAGASLRLSCAASGSTLSRYGVGWFRQAPGKERELVASVDWSGSRTYYADSVKGRFTISRDNAKNTGYLQMNSLKPDDTAVYYCAADSSVVPGIEKYDDWGLGTQVTVSSGGGGSEVQLVESGGGLVQPGGSLRLSCAASGFTFGSSDMSWVRQAPGKGPEWVSGINSGGGRTLYADSVKGRFTISRDNAKNTLYLQMNSLKSEDTAVYYCATDLYGSSWYTDYWSQGTQVTVSS
B5: 213-E6 25GS 212-C12 (VHH)
chain: EVQLVESGGGLVQAGASLRLSCAASGSTLSRYGVGWFRQAPGKERELVASVDWSGSRTYYADSVKGRFTISRDNAKNTGYLQMNSLKPDDTAVYYCAADSSVVPGIEKYDDWGLGTQVTVSSGGGGSGGGGSGGGGSGGGGSGGGGSEVQLVESGGGLVQPGGSLRLSCAASGFTFGSSDMSWVRQAPGKGPEWVSGINSGGGRTLYADSVKGRFTISRDNAKNTLYLQMNSLKSEDTAVYYCATDLYGSSWYTDYWSQGTQVTVSS
B6: 214-F8 15GS 214-F8 (VHH)
chain: EVQLVESGGDLVQAGGSLRLSCVASGSTYSINAMGWYRQAPGKLRELVAAFRTGGSTDYADSVKGRFTISRDTAKNTVYLQMNSLKPEDTAVYYCNAEVIYYPYDYWGQGTQVTVSSGGGGSGGGGSGGGGSEVQLVESGGDLVQAGGSLRLSCVASGSTYSINAMGWYRQAPGKLRELVAAFRTGGSTDYADSVKGRFTISRDTAKNTVYLQMNSLKPEDTAVYYCNAEVIYYPYDYWGQGTQVTVSS
B7: 213-E6 25GS 213-E6 (VHH)
chain: EVQLVESGGGLVQAGASLRLSCAASGSTLSRYGVGWFRQAPGKERELVASVDWSGSRTYYADSVKGRFTISRDNAKNTGYLQMNSLKPDDTAVYYCAADSSVVPGIEKYDDWGLGTQVTVSSGGGGSGGGGSGGGGSGGGGSGGGGSEVQLVESGGGLVQAGASLRLSCAASGSTLSRYGVGWFRQAPGKERELVASVDWSGSRTYYADSVKGRFTISRDNAKNTGYLQMNSLKPDDTAVYYCAADSSVVPGIEKYDDWGLGTQVTVSS

The binders below were run against Rabies virus glycoprotein G, Challenge Virus Standard (CVS)-11 strain (Rabies virus, strain CVS-11 (genotype 1 Lyssavirus)) (UniProt O92284) (assay: cell-based or functional assay).
Chain of Rabies virus glycoprotein G, Challenge Virus Standard (CVS)-11 strain (Rabies virus, strain CVS-11 (genotype 1 Lyssavirus)) (O92284 20-524 limits assumed): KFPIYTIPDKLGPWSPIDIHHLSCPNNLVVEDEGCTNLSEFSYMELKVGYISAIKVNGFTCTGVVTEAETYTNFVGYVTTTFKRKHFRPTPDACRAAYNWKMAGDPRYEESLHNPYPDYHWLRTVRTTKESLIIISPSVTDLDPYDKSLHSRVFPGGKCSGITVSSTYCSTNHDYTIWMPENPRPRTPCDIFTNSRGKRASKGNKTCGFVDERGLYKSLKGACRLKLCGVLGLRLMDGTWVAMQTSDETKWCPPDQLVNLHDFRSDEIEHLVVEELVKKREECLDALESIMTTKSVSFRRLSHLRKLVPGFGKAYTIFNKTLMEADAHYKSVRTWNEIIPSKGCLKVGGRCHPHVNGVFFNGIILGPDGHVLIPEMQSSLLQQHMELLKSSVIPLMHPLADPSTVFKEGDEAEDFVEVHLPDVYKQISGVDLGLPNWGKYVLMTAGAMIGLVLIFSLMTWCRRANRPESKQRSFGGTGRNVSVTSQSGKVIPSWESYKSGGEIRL

Point of comparison: B1, CVS-11 neutralizing antibody titer (RFFIT), IU/mg 114 IU/mg. Against it:
- B2 — lower, 20 IU/mg
- B3 — higher, 308 IU/mg

Point of comparison: B3, CVS-11 neutralizing antibody titer (RFFIT), IU/ml 394 IU/ml. Against it:
- B1 — lower, 122 IU/ml
- B2 — lower, 31 IU/ml

Point of comparison: B2, CVS-11 neutralizing antibody titer (RFFIT), IU/µM 0.3 IU/µM. Against it:
- B1 — higher, 1.71 IU/µM
- B3 — higher, 4.6 IU/µM

Point of comparison: B2, CVS-11 neutralizing antibody titer (RFFIT), nM IC50 101 nM. Against it:
- B1 — 5.7-fold lower, 17.7 nM
- B3 — 13-fold lower, 7.55 nM

What follows are binders tested against Rabies virus glycoprotein G, strain CVS-11 (Challenge Virus Standard-11, ATCC VR 959) (Rabies virus, strain CVS-11) (assay: cell-based or functional assay).

Point of comparison: B7, CVS neutralizing antibody titre (RFFIT): IU/mg 300 IU/mg. Against it:
- B4 — higher, 385 IU/mg
- B5 — lower, 248 IU/mg
- B6 — higher, 650 IU/mg

Point of comparison: B6, CVS neutralizing antibody titre (RFFIT): IU/ml 13 IU/ml. Against it:
- B4 — higher, 385 IU/ml
- B5 — higher, 1290 IU/ml
- B7 — higher, 21 IU/ml

Point of comparison: B5, CVS neutralizing antibody titre (RFFIT): IU/nM 6.7 IU/nM. Against it:
- B4 — higher, 10 IU/nM
- B6 — higher, 17.2 IU/nM
- B7 — higher, 8.29 IU/nM

Point of comparison: B5, CVS neutralizing antibody titre (RFFIT): nM IC50 4.79 nM. Against it:
- B4 — within 1.5-fold, 3.21 nM
- B6 — 2.7-fold lower, 1.79 nM
- B7 — within 1.5-fold, 3.76 nM

Point of comparison: B6, Potency (IU/nM) increase versus monovalent 63.7 fold. Against it:
- B4 — lower, 6.3 fold
- B5 — lower, 4.2 fold
- B7 — lower, 6.4 fold
